The source of these data is US20210002644, “ANTI-CHYMASE APTAMER AND USE FOR SAME” (RIBOMIC INC., published 2021).

Series [1] has as its target T1, chymase (recombinant, SIGMA) (UniProt P23946 P23946:22-247).
T1 sequence: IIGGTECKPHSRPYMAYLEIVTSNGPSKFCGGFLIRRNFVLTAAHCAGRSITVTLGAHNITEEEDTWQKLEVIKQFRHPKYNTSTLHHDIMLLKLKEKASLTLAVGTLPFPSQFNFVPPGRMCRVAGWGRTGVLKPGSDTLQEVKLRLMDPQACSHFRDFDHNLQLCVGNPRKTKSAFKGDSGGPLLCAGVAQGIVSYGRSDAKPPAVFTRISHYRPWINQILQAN
Briefly: inhibition; Suc-AAPF-MCA substrate, 0.005 ug chymase, single measurement. Conditions: tags: SIGMA recombinant. The protocol:
(§1) The assay was performed using a 96-well plate (F16 Black Maxisorp Fluoronunc, manufactured by Nunc), with a reaction mixture volume of 100 μL, in solution C as a buffer solution. Here, the solution C is a mixed solution of 145 mM sodium chloride, 5.4 mM potassium chloride, 1.8 mM calcium chloride, 0.8 mM magnesium chloride, 20 mM Tris (pH 7.6), and 0.05% Tween20. First, nucleic acid was serially diluted in solution C to obtain 50 μL solutions. After 10 μL of the 1 mM substrate prepared in solution C was added thereto, the plate was set to the microplate reader SpectraMax190 (manufactured by Molecular Devices Corporation), and incubated at 37° C. for 5 minutes. Separately, 0.05 μg of chymase (recombinant, manufactured by SIGMA) was diluted in solution C to obtain a 40 μL chymase solution, and incubated at 37° C. for 5 minutes. The chymase solution was added to the mixture of the nucleic acid and substrate to initiate an enzyme reaction. The final chymase concentration in the reaction mixture was 16.7 nM, the final substrate concentration being 100 μM. The plate containing the reaction mixture was set to the microplate reader SpectraMax190 (manufactured by Molecular Devices Corporation), and examined for time-dependent changes in the fluorescence intensity at 37° C. for 5 minutes (or 30 minutes) (excitation wavelength 380 nm, detection wavelength 460 nm). A linear approximation of the increase in the fluorescence of the AMC released from the substrate by chymase activity was generated, and its slope was taken as the initial velocity […]. For control, samples were treated and analyzed in the same manner in two cases: use of a 30N (a nucleotide of 30 consecutive bases represented by N; N is A, G, C or T) nucleic acid pool (negative control), and use of chymostatin, a known chymotrypsin-like serine protease inhibitor (positive control). Taking the initial reaction velocity without the nucleic acid and inhibitor (V₀) as a 100% enzyme activity, the inhibitory rate of each test substance was calculated using the following equation: […]
In the evaluation of SEQ ID NO: 21-25, a method similar to the evaluation method of inhibitory activity against chymase shown in Example 1 by using MCA as a substrate except that the amount chymase was changed from 0.05 μg to 0.005 μg was used for measurement.

The target in series [2] is T1, chymase (recombinant, SIGMA). Briefly: inhibition; Suc-AAPF-MCA substrate, 37 C. The settings on record: tags: SIGMA recombinant. The method, then:
as §1, with “By detecting the fluorescence of this AMC, the enzyme activity of chymase can be determined. The assay” for “The assay”

Series [3] concerns the target T2, chymase (native, human skin mast cell) (Homo sapiens, UniProt P23946 P23946:22-247).
T2 sequence: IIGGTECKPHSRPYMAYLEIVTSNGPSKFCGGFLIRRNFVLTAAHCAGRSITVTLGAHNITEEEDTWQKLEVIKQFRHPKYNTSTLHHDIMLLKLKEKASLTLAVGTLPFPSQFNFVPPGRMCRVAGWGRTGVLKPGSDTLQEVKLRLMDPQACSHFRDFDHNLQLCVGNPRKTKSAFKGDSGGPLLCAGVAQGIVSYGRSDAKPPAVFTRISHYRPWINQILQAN
Briefly: inhibition; angiotensin I substrate; table prints length 32 though SEQ 33 is 31 nt. The settings on record: tags: Calbiochem Human Skin. The protocol: (§2) The total volume of solution for an enzyme reaction in the assay was set to 50 μL, and the reaction was performed in solution C buffer. At first, native (manufactured by Calbiochem) was diluted with solution C to give 5 μL thereof. Here, the native is chymase purified from human skin mast cell. The nucleic acid was serially diluted with solution C at a concentration of 0.0027-2 μM to give 25 μL thereof. The chymase solution (5 μL) and the nucleic acid solution (25 μL) were mixed, and the mixture was incubated at 37° C. for 5 min. On the other hand, […] angiotensin I (manufactured by PEPTIDE […], INC.) was prepared in solution C to give 20 μL thereof, which was incubated at 37° C. for 5 min. The angiotensin I solution was added to a mixture of chymase and nucleic acid to start an enzyme reaction. The final chymase concentration of the reaction solution was 0.5 nM, and the final substrate concentration was 50 μM. After reaction at 37° C. for 90 min, ice-cooled 30% trichloroacetic acid solution (25 μL) was added to quench the reaction. The whole mixture was centrifuged at 4° C., 14000 rpm for 10 min, and the supernatant (30 μL) was used for the next fluorescence induction reaction.

Series [4] addresses T2, chymase (native, human skin mast cell). Briefly: inhibition; angiotensin I substrate, 37 C. Conditions: tags: Calbiochem Human Skin. The method, then:
as §2, with “The angiotensin I solution was added to a mixture of chymase and nucleic acid to start an enzyme reaction. The final chymase concentration of the reaction solution was 0.5 nM, and the final substrate concentration was 50 μM. After reaction at 37° C. for 90 min, ice-cooled 30% trichloroacetic acid solution (25 μL) was added to quench the reaction.” left out
The above-mentioned supernatant (30 μL) was added to a 96 well plate (black, manufactured by Costar), a solution (15 μL) of 2% o-phthalaldehyde (manufactured by SIGMA) in methanol and 0.3M NaOH solution (170 μL) were added to each well, and the mixture was incubated at room temperature for 10 min. […] The plate was set on a microplate reader SpectraMax190 (manufactured by Molecular device) and the fluorescence intensity was measured at an excitation wavelength of 355 nm and a fluorescence wavelength of 460 nm. […]

Series [5] deals with T1, chymase (recombinant, SIGMA). The experiment in a line: inhibition; Suc-AAPF-MCA substrate, 37 C, 1.8 mM Ca, 0.8 mM Mg, pH 7.6. Conditions: tags: SIGMA recombinant. The method, then: By detecting the fluorescence of this AMC, the enzyme activity of chymase can be determined. The assay was performed using a 96-well plate (F16 Black Maxisorp Fluoronunc, manufactured by Nunc), with a reaction mixture volume of 100 μL, in solution C as a buffer solution. Here, the solution C is a mixed solution of 145 mM sodium chloride, 5.4 mM potassium chloride, 1.8 mM calcium chloride, 0.8 mM magnesium chloride, 20 mM Tris (pH 7.6), and 0.05% Tween20. First, nucleic acid was serially diluted in solution C to obtain 50 μL solutions. After 10 μL of the 1 mM substrate prepared in solution C was added thereto, the plate was set to the microplate reader SpectraMax190 (manufactured by Molecular Devices Corporation), and incubated at 37° C. for 5 minutes. […] The plate containing the reaction mixture was set to the microplate reader SpectraMax190 (manufactured by Molecular Devices Corporation), and examined for time-dependent changes in the fluorescence intensity at 37° C. for 5 minutes (or 30 minutes) (excitation wavelength 380 nm, detection wavelength 460 nm). A linear approximation of the increase in the fluorescence of the AMC released from the substrate by chymase activity was generated, and its slope was taken as the initial velocity […]. […]

Series [6] deals with T2, chymase (native, human skin mast cell). The experiment in a line: inhibition; angiotensin I substrate. Conditions: tags: Calbiochem Human Skin. The protocol:
as §2
The above-mentioned supernatant (30 μL) was added to a 96 well plate (black, manufactured by Costar), a solution (15 μL) of 2% o-phthalaldehyde (manufactured by SIGMA) in methanol and 0.3M NaOH solution (170 μL) were added to each well, and the mixture was incubated at room temperature for 10 min. Then, 3M HCl solution (25 μL) was added to quench the reaction. The plate was set on a microplate reader SpectraMax190 (manufactured by Molecular device) and the fluorescence intensity was measured at an excitation wavelength of 355 nm and a fluorescence wavelength of 460 nm.
The nucleic acids of SEQ ID NO: 11-20 were all produced by chemical synthesis. In the evaluation of SEQ ID NO: 11-20, a method similar to the evaluation method of inhibitory activity against chymase shown in Example 1 by using angiotensin I as a substrate was used for measurement. […] The IC₅₀ value is a mean of 2 or 3 measurements.

B1: SEQ ID NO: 21 (ssRNA)
RNA: GGCAGAUGAUCGGACAUAACAGGUUAGAUAGAGUUAAAAACCUGGGGUGUCAA
modifications: 2'-F pyrimidines (inferred)
The term IC50 denotes the concentration at which inhibition is half-maximal. Take B1: the IC50 in series [1] amounted to 5.7 nM.

B2: SEQ ID NO: 3 (ssRNA)
RNA: GGGAGCAGGAGAGAGGUCAGAUGAUAACCAGUUGGGGGGUCAAUUACAUGGGACCUAUGCGUGCUAGUGUGA
modifications: 2'-F pyrimidines (U, C); purines 2'-OH
B2: in series [2], the IC50 came to 26 nM.

B3: SEQ ID NO: 33 (ssRNA)
RNA: AUGAUCGGACAUAACUAAUUAGGGGUGUCAA
modifications: 2'-F pyrimidines (U, C); purines 2'-OH
Take B3: the IC50 in series [3] is 0.21 nM.

B4: SEQ ID NO: 2 (ssRNA)
RNA: GGGAGCAGGAGAGAGGUCAGAUGAUCGGACAUAACAUUGUUGGGGUGUCAAGGCCUAUGCGUGCUAGUGUGA
modifications: 2'-F pyrimidines (U, C); purines 2'-OH
On to B4, for which the IC50 in series [4] stood at 10 nM; in series [2], 31 nM.

B5: SEQ ID NO: 1 (ssRNA)
RNA: GGGAGCAGGAGAGAGGUCAGAUGAGCAUGCUUUUUGGUAACCGAUAAUGGGGGCCUAUGCGUGCUAGUGUGA
modifications: 2'-F pyrimidines (U, C); purines 2'-OH
Regarding B5, the IC50 in series [5] amounted to 41 nM.

B6: SEQ ID NO: 6 (ssRNA)
RNA: GGGAGCAGGAGAGAGGUCAGAUGUCAUGACUUAUAGGUAACCGAUAAUGGGGGCCUAUGCGUGCUAGUGUGA
modifications: 2'-F pyrimidines (U, C); purines 2'-OH
For B6, in series [2], the half-inhibitory concentration (IC50) was determined as 5.5 nM.

B7: SEQ ID NO: 7 (ssRNA)
RNA: GGGAGCAGGAGAGAGGUCAGAUGUUUGGUAGUAACUGGAAUAGGGGCUACAGGCCUAUGCGUGCUAGUGUGA
modifications: 2'-F pyrimidines (U, C); purines 2'-OH
Turning to B7, in series [2], the half-inhibitory concentration (IC50) stood at 52 nM.

B8: SEQ ID NO: 5 (ssRNA)
RNA: GGGAGCAGGAGAGAGGUCAGAUGAUGACCGAUUAUAGGUAACCACUUAGGGGGCCUAUGCGUGCUAGUGUGA
modifications: 2'-F pyrimidines (U, C); purines 2'-OH
For the molecule B8, the concentration for half-maximal inhibition (IC50) in series [2] was 7 nM.

B9: SEQ ID NO: 8 (ssRNA)
RNA: GGGAGCAGGAGAGAGGUCAGAUGAUUGACGACUAUAGGUAACCUUUACGGGGGCCUAUGCGUGCUAGUGUGA
modifications: 2'-F pyrimidines (U, C); purines 2'-OH
Consider B9, for which the half-maximal inhibitory concentration (IC50) in series [2] worked out at 35 nM.

B10: SEQ ID NO: 20 (ssRNA)
RNA: GAUGAUCGGACAUAACAUUGUUGGGGUGUCA
modifications: 2'-F pyrimidines (U, C); purines 2'-OH
For B10, the IC50 in series [6] is 1.8 nM.
